Source: the domain aggregation screens of Martell et al. (2025)

assay: soluble fraction after stress (log2 fold change); higher = more stays soluble; pooled small domains, quantitative proteomics; conditions: stress: 75 degC
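Further: 20 min heating vs room temperature control held 20 min.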

Row | Sequence | soluble fraction (log2)
1 | HMKTKTIMSTGAREDLVKMINEYYYSKNYIITEDNRIYNTKTEKFMDDLSVKFYRGRWKVIRN | -0.852
2 | HMKTLDATQRLKLNGEGIIVFNFGKYVDQPVVEIFKKERGYFAWMMSKDFSQQVKNIITKIHNEEILGK | -3.01
3 | HMKTLKHYFASIAHEFGREEAELMLLSVFKTPFEQRLMLFMKDPALTEAQVQQLDNLVRQRKQGVPLPYIL | -2.68
4 | HMKTLPADPTVKNFSYTVVDGEIYYRENSIMTQIELSDNAKGRVAGMVELRQIVNELIDQQLND | -0.849
5 | HMKTMEQSYIGRKIILDENVEDSALIKFEGIYWTFKSVSGPLKKGTEVEIIGIEGNKILIKNK | -0.988
6 | HMKTPIEFGSVYNDPVRYVIGMSIKSAESINQAIYDMMKIFGDENNMNKFDSLPDEQAVLDMVNSF | 0.0725
7 | HMKTRIQDLRKELGVTQSELADAVDVTRQTIISLEGGRYKASLVLAHKLAQFFHVTIEELFIFD | -2.32
8 | HMKTRNISGNHEAVWQAVRSRTQAGHPTTRAVIMDDLKAQGLNTQKFSRWLKKLVDDGSVYMDGDTIIMGK | -0.306
9 | HMKTRTVVLKSAGGNKIAVIKIIKEITGLGLVEAKAVADNGGNIKENIPAEEAEAIKTQLTEAGAEVEL | -0.664
10 | HMKTRYPNVYQDEKGKFFYQIFIGTDTNGRKKLKKGRRDALGHPFSSAYQASKEAKRVQALYANVS | -2.02
11 | HMKTSTGSAMYLTLDLAEKYAGQAFTLVHKKADGTFEYLYATADVDGKVKFGPVYELSPFMLVKGQL | -1.66
12 | HMKTSVGSKMMVMANNLSIRKSANLLSEKLADLSKGDMVEYISSTNGWNKVRYNGYVGYVSSYYLKDTGEV | -2.21
13 | HMKTTKDSVFEYIQKELMTNEEYKQGINTNVIAQHFGLQRSNISTILNELVKEDRLEKTNTRPVLYFLPQ | -0.208
14 | HMKTTKRERARAKLIQLLENEDRPAKEIYAGLGDIGVGSRTVEKVKKELQVTTYRSGGSWYWSLPKP | -0.525
15 | HMKTVKPSQIPYSEFLKLVETDKINDVSMVGRNIIGHLDDGSKFKTYTPPNDPTLIEKLSSHNIVINAAPE | 0.0923
16 | HMKTVLDSLLRILDSKELDIVVLRHIVGLTLTEIAKEKDMKKGTVFWMYNRAVKKLRLESERMGL | -2.13
17 | HMKTVPNVEGEKDGTAQSAIESAGLKVGKVTYQYDDNTSKGLVISQSVKGGEKVKPNTAIDLVVSNGPK | -0.117
18 | HMKTYSEAQLKIALESLIENGKKQGYLTFQEINEILPDGIINTQDLKVIISILKETGIVVAKEKPEINIDV | 0.0761
19 | HMKVEFTPAYLKKFKANKNAWKFYEAQTNTYKKQSAWYVISAKQEETRLRRLDLLIYDSENGIHIKPLRR | -2.74
20 | HMKVFTEDEMLEKIKEYLSTNSYINRRVMETQFGLRQNIALKWLKHFTEIGVLRKEGERNSPIYFLNN | -0.356
21 | HMKVKIFNGMKLVTNSTGLTVDGKPAALDESNADAKTYSQGLYVFIVYQSGKIAVMQDGKFLGYA | -3.34
22 | HMKVLNVLESEIVRLFKQGQQKDNIRDNIYKTHGQHYNNKKSFNVVFGRKWNSLLEQGFLES | -1.23
23 | HMKVRDTQYIIEAAISKNVIRKSKNIYYYGTDIIGRSLEDAIASLNDKKNQDIKMTILQEIES | -2.14
24 | HMKVSKNKIVKGMGFHHVALKAVDFDASFKFYTEGLGMKFYTSWGEGNGKIAMLDLGDGGILELFA | 0.0409
25 | HMKVTGITDDILQRLKQQKGYLMLSDKSSPDEIYAAFGVSKKVFKQAIGTLFKQRQIIIEEQGIRLAN | -1.3
26 | HMKVTQDIIFKRNGEEIKSKVLEITPDLIIYIDYSRADNIAREINISEVNMIIYKNGTSEIFSRPEE | -1.69
27 | HMKVTTGIDGLIGEEGVALSDFSGKGKIMVHGEIWNAEFSGEVKKGEVLLVEKANGMTLITRKKN | ≥ 1.04
28 | HMKYKWLAGQLRRELLENGGKKGYKLPTELELARRYQLSRQTVRRALQLLEEEGLILRRQGSGAYATGKPP | -0.729
29 | HMKYLREEDYLPIGSIIRLDDRNFRVDHVNFMFKSVSLQDMDLTNSGQPIFRSESLPHIRELYEQQQNELV | -0.877
30 | HMKYYIYQGLGDSGELTKIAEVTDVKTYTATGLEANTKYRFAVSAYNGLRESSKSNIITVTT | 0.0116
